Assay in all cases: EMSA
Conditions in all cases: DIG gel shift kit (2nd generation, Roche), as in ref 14; buffer, salt, pH and temperature not stated
A general note: In EMSA bound probe runs differently from free probe, usually more slowly.

Data set [1] relates to GdhR WT;GdhR P6S P6S (Neisseria gonorrhoeae;Neisseria gonorrhoeae MS11), ORF:8165ddaf+ORF:8165ddaf.
For data set [2], the system named is T1, GdhR P6S P6S (Neisseria gonorrhoeae MS11), ORF:8165ddaf.
T1 sequence: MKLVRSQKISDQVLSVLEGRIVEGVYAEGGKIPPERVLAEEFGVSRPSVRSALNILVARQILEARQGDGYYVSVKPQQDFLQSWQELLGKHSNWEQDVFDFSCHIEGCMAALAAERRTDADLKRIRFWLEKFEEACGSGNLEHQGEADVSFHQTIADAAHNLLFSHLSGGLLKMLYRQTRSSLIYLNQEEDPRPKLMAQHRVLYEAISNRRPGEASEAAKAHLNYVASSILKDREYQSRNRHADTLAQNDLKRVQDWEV

The subject of data set [3] is T2, GdhR WT (Neisseria gonorrhoeae), ORF:8165ddaf.
T2 sequence: T1 sequence with S6P

Substitutions are numbered along the chain they refer to.

Regarding “GTGGACGGGGACGGCGCGGTATTCGTGCCGCCGGAAGAATGCTGAAAATGCCGTCTGAAGCCTTTCGGGCGGCTTTTTCTACACGCCCCTTTCCCACACTCCCTCCGCCGCATCATCACCATCCTTAACCCGCATTAATAGCCATTATCGATAAAATGCTTGACCGATTACATAAGATTACGTAAAGTGTGCAAACGCATAATAATTGGTCTTACCAATTTATCTTTTAACCAAAATATCGGGTGTGCGGGATTTGAACGTCTTTCCAAACCTCGACGCGCCTTATGATGC (double strand) [lctP promoter -313 to -23]”, the binding result in data set [1] is on record as “binds”; in data set [2], “binds more weakly”; in data set [3] it was “binds”.

The values are drawn from publication PMC9040798.
